Assay [1] deals with M15 (influenza A virus). The experiment in a line: ELISA on peptide, Ab 10 µg/ml. (ELISA stands for enzyme-linked immunosorbent assay.)
Assay [2] addresses M16 (influenza A virus). Briefly: ELISA on peptide, Ab 10 µg/ml.
Assay [3] concerns the target M2 peptide (influenza A virus, A/Hong Kong/1/68 (H3N2)). The experiment in a line: ELISA on peptide, Ab 10 µg/ml.
Assay [4] has as its target NM15 (influenza A virus). Briefly: ELISA on peptide, Ab 10 µg/ml.
For assay [5], the target named is NM16 (influenza A virus). The experiment in a line: ELISA on peptide, Ab 10 µg/ml.
In assay [6] the target is NM17 (influenza A virus). The experiment in a line: ELISA on peptide, Ab 10 µg/ml.
In assay [7] the target is M2-BSA conjugate (influenza A virus, A/Hong Kong/1/68 (H3N2)). The experiment in a line: peptide-BSA ELISA (++ EC50<10^-9M; + 10^-9M<EC50<10^-8M).
For assay [8], the target named is M2FG peptide conjugated with BSA (influenza A virus, A/X-31 (H3N2)). Described as above. The following applies: remark: other sources report otherwise.
In assay [9] the target is M2G peptide conjugated with BSA (influenza A virus, A/Puerto Rico/8/34 (H1N1)). The assay is described as above.

One may read the EC50 as the concentration needed to bring the measured effect to its halfway point.

B1: C40G1 (antibody, V domains shown)
VH: QLQLQESGPGLVKPSETLSLTCTVSGGSISSSFYYCGWIRQPPGKGLEWIGSIYYRGSTYYNPSLKSRVTISVDTSKNQFSLKLSSVTAADTAVYYCARRVTMVRGVKGDYFDYWGQGTLVTVSS
VL: DIQMTQSPSSLSASVGDRVTITCRASQGISSWLAWYQQKPEKVPKSLIYAASSLQSGVPSRFSGSGSGTDFTLTISSLQPEDFATYYCQQYNYYPLTFGGGTKVEIKR
As for B1, the ELISA(OD450) in assay [1] stood at 2.73 OD450; in assay [2], 2.64 OD450; in assay [3], 2.56 OD450; in [4], 2.51 OD450; in [5], 2.37 OD450; in [6], 2.41 OD450. Further, the EC50 in assay [7], in assay [8] and in assay [9] was under 1 nM in each case.

(Values after patent US20090162366A1.)
